The values that follow come from patent publication US5849890.

Where only a bound is given, the exact number is not on record here.

This data set concerns the target human chorionic gonadotropin (hCG) heterodimer (Homo sapiens) (UniProt P01215+P0DN86). The experiment in a line: filter. As to conditions: 2'-F all pyrimidines (RNA transcript of template).

Sequence of human chorionic gonadotropin (hCG) heterodimer (Homo sapiens) (P01215 25-116, chain 1 of 2, other chains not shown): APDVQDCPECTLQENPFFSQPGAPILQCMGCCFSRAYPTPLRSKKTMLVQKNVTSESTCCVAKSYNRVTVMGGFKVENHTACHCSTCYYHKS

“GGGAGACAAGAAUAAACGCUCAANNNNNNNNNNNNNNNNNNNNNNNNNNNNNNNNNNNNNNNNUUCGACAGGAGGCUCACAACAGGC [2'-F random 40N8 pool]”: the Kd (estimate, <1% bound at up to 80 uM) was greater than 800 µM.

Turning to “GGGAGGACGAUGCGGNNNNNNNNNNNNNUUGAACGAUCCUUNNNNNNNNNNNNNCAGACGACUCGCCCGA [CG2N7 unselected pool]”, for the setting “up to 40 uM hCG”, the binding is less than 1 % bound.
